Data reported in US20160215041A1.

Experiments:
[1] = target: Anti-P. aeruginosa O6ad Fab, c-myc- and 6× His-tagged (human); experiment: ELISA: anti-O6ad Fab coated, two-fold dilutions of anti-tag IgG, goat anti-mouse IgG-HRP
[2] = target: Anti-P. aeruginosa O6ad scFv, c-myc- and 6× His-tagged (human); experiment: cell-based or functional assay
[3] = target: Anti-P. aeruginosa O6ad Fab, c-myc- and 6× His-tagged (human); experiment: cell-based or functional assay
[4] = target: Anti-P. aeruginosa O6ad scFv, c-myc- and 6× His-tagged (human); experiment: ELISA, rAb coated, anti-tag IgG titrated (FIG. 7)
[5] = target: Anti-P. aeruginosa O6ad Fab, c-myc- and 6× His-tagged (human); experiment: ELISA, rAb coated, anti-tag IgG titrated (FIG. 7)
[6] = target: Anti-P. aeruginosa O6ad scFv, c-myc- and 6× His-tagged (human); experiment: ELISA: anti-O6ad scFv coated, two-fold dilutions of anti-tag IgG, goat anti-mouse IgG-HRP
[7] = target: Human complement C1q (human) (UniProt P02745); experiment: C1q deposition ELISA, anti-tag IgG alone at 66.67 nM
Sequence of UniProt P02745 (P02745 23-245 limits assumed, chain 1 of 3): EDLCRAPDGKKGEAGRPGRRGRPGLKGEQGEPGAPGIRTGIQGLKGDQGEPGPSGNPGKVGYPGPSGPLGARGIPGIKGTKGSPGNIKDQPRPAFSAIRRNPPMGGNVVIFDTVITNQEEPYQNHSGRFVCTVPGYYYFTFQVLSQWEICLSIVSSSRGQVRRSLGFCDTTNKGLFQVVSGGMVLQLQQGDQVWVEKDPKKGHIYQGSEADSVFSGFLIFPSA
Sequence of UniProt P02745 (P02746 28-253 limits assumed, chain 2 of 3, further chain): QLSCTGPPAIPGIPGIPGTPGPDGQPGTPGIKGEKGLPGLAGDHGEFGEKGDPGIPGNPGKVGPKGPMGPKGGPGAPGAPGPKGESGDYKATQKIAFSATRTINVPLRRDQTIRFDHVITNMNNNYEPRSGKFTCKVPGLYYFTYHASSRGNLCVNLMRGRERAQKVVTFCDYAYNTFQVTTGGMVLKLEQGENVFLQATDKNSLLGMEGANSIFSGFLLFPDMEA
Sequence of UniProt P02745 (P02747 29-245 limits assumed, chain 3 of 3, further chain): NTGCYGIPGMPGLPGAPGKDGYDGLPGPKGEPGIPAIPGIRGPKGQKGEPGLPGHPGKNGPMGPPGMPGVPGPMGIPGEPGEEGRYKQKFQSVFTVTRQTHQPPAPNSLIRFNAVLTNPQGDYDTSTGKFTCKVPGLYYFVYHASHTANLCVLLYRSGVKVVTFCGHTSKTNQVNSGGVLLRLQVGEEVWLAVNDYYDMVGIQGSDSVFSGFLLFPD

| EC50 (read off the curve) [1] | % phagocytosed bacteria (P. aeruginosa O6ad, J774.1A) [2] | fold increase of bacterial uptake over the control without antibodies, at 13.09 nM anti-tag IgG [2] | fold phagocytosis relative to scFv-9E10 [2] | % phagocytosed bacteria (P. aeruginosa O6ad, J774.1A) [3] | fold increase of bacterial uptake over the control without antibodies, at 13.09 nM anti-tag IgG [3] | fold phagocytosis relative to Fab-9E10 [3] | fold binding relative to 9E10 [4] | fold binding relative to 9E10 [5] | EC50 (read off the curve) [6] | fold C1q deposition relative to Penta-His [7] | Substance |
| --- | --- | --- | --- | --- | --- | --- | --- | --- | --- | --- | --- |
| 1 nM | 42% | 10.6 fold | 2 fold | 27% | 3.5 fold | > 1.2 fold | < 10 fold | < 10 fold | 1 nM | – | Anti-Penta-His IgG1 murine mAb (QIAgen) (antibody) |
| – | 24.8% | 4.6 fold | – | 18.8% | 3.5 fold | – | – | – | – | 1.4 fold | Murine mAb 9E10 (anti-c-myc IgG1) from hybridoma 1-9E10.2 (ATCC CRL-1729) (antibody) |
